# Measured values from the nanobody polyreactivity screen of Harvey et al. (2022).
# Experiment: yeast display, Sf9 membrane polyspecificity reagent, FACS + sequencing; frameworks hold sequencing errors
# In short: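 Polyreactivity labels are assigned by the sorting gate from which each nanobody was recovered. The gates were low and high (top ~1%), set on anti-HA fluorescence for expression and streptavidin fluorescence for reagent binding. Before sorting, galactose-induced (36–48 hours) yeast display cells were stained for 1 hour at 4 °C with 10% biotinylated, detergent-solubilized Sf9 membrane reagent.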
row,Sequence,polyreactivity (PSR sort gate)
1,QVQLVESGGGLVQAGGSLRLSCAASGRTFIGYNMGWYRQAPGKERELVAAITWNGGRTYYADSVKGRFTISRDNAKNTVYLQMNSLKPEDTAVYYCAAPRRVVIGGGDYWGQGTQVTVSS,high polyreactivity
2,QVQLEESWGGLVQAGGSHRLICAASGSTIGYYAMGWYRQAPWKEREFVASITWGGASTDYADSVKGRFTISRDNAKNSVYLQMNSMKPEDTAVYYCAKDNWDNPRPTSEMDYWGQGTQVTVSS,low polyreactivity
3,QVQLVESGGGLVQAGGSLRISCAASGLTFVYYTMGWYSQAPGKEREFVAGIDWSGGSTYYADSVKLRFTISRDNAKNTVYLQMNSLKPEDTAVYYCAAAVYYQYGVYRHDYWGQGTQVTVSS,low polyreactivity
4,QVQLVESGGGLVQAGGSLRLSCAASGRTFRNYAMGWYRQAPGKERELVAAISASGGSTYYADSVKGRFTISRDNAKNTVYLQMNSLKPEDTAVYYCAARYQGFGYRKYDYWGQGTQVTVSS,high polyreactivity
5,QVQLVESGGGLVQAGGSLRLSCAASGRTISRNAMGWYRQAPGTERELVASISRSGGSTYYADSVKGRFTISRDNAKNTVYLQMNSLKPEETAVYYCAASYWHRRYDYWGQGTQVTVSS,high polyreactivity
6,QVQLVESGGGLVQAGGSLRLSCAASGSTFGSYGMGWYRQSPGKERELVAGITSAGSTYYADSVKGRFTISRDNAKNTVYLQMNSLKPEDTAVYYCNARSGIVWYYDNDYWGQGTQVTVSS,low polyreactivity
7,QDQLVESGGGLVQAGGSLRLSCAASGRTFYDNVMGWYRQAPGKERELVAAISSGASTNYADSVKGRFTISRDNAKNSVYFQMNSLKPEDSAVYYCATNGGGGWAYEYWGQGTQVTVSS,low polyreactivity
8,QVQLVESGGGLVQAGGSLRLSCAASGRIFGWYAMGCYIQAPGKERELVAAISSNGGSTYYADSVKGRFTISRDNAKNTVYLQMNSLKPEDTAVYYCAAVRVFQYKYDRFNYWGQGTQVTVSS,high polyreactivity
9,QVQLVESGGGLVQAGGSLRLSCAASGRTFYYNTKGWYRQAPGKERELVASISGSGGRTYFADSVKGRFTISRDTAKNTVYLQMNSLKPEDTAVYYCASSRARRSRYILDYWGQGTQVTVSS,high polyreactivity
10,QVQLVESGGRLVQAGGSLRRSCAASGSTFASNAMRWYRPAPGKERELVAAITSRDASTYYADSVKGRFTISRDNAKNTVYLQMNSLKPEDTAVYYCATDGYSPAAFDYWGQGTQVTVSS,low polyreactivity
11,QVQLVESGGALVQAGGSLRLSCAASGSIFYNAMGWYRQAPGKERELVAAISWRGTRTYYADSVKGRFTISRDNAKNTVYLQMNSLKPEDTAVYYCNKDYKYGVAYTRYDYWGQGTQVTVSS,high polyreactivity
12,QVQLVESGGGLVQAGGSLRLSCAASGNIIYQNAKGLYRQAPGKERELVAAITGRGSSTYYADSVKGRFTISRDNAKNTVYLQMNSMKPEDTAVYYCAADTTPYDGYYGHGYWGQGTQVTVSS,low polyreactivity
13,QDQLVESGGGLVQAGGSLRLSCAASGSISSKNAMGCYRQAPGKEREFVAVISGTGGSTYYSDSVKGRFTISRDNAKNTVYLQMNRLKPEDTAVYYCAAAGSSIVSYGYSWTYGYWGQGTQVTVSS,low polyreactivity
14,QVQLVESGGGLVQAGGSLRLSCAASGSIFVPYAMGWYRQAPGKERELVAVITSGGSTYYADSVKGRFTISRDNAKNTVFLQMNSLKPEDTAVYYCAVDGGEFSSYGYWGQGTQVTVSS,low polyreactivity
15,QVQLVESVGGLVQAGGSLRFSCAASGFIFNYNALGWYRQAPGTERELVAAISGTGVRTYYADSVKGRFTISRDNAKNTVYLQMNSLKPEDTAVYYCNAYYGYIPVSGYRNDYWGQGTQVTVSS,low polyreactivity
16,QVQLVESGGGLVQAGGSLRLSCAASGSIFYIYAMGWYRQAPGKERELVAAITWRGGRTYYADSVKGRFTISRDNAKNTVYLQMNSLKPEDTAVYYCAALYAKYYYRYDYWGQGTQVTVSS,high polyreactivity
17,QVQLVESGGGLVQAGGSLRLSCAASGRIFVDNDMGWYRQAPGKERELVAAISGNGGNTNYADSVKGRFTISRDNAKNTVYLQMNSLKPEDTAVYYCAATYPVGHVYRYDYWGQGTQVTVSS,low polyreactivity
18,QVHLVESGGGLVQAGGSLRLSCAASGRIFVKYAMGCYRQAPGKERELVAAIRSGGSTYYADSVKGRFTISRDNAKNTVYLQMNSLKPEDTAVYYCAADRNKHHYYTEPYDYWGQGTQVTVSS,low polyreactivity
19,QVQLVESGGGLVQAGGSLRLSCAASGFIFYRYAMGWYRQAPGKERELVAAITSDGSTYYADSVKGRFTISRDNAKNTVYLQMNSLKPEDTAVYYCNAERWGNSVGNYWGQGTQVTVSS,high polyreactivity
20,QVQLVESGGGLVQAGGSLRLSCAASGYTFRYYVMGWYRQAPGKERELVAAISFSGGSTYYADSVKGRFTISRDTAKNSGYLQMKSLKPEDTAVYYCAARPGGGKYRGYYYWGQGTQVTVSS,high polyreactivity
21,QVQLVESGGGLVQAGGSLRLICAASGSTFGYYAMGWYRKAPGKERELVAVITYSGGSTYYADSVKGRFTISRDNAKNTVNLQMNSLKPEDTSVYYCSAVIGVWYYYTYDYWGQGTQVTVSS,low polyreactivity
22,QVQLVESGGGLVQAGGSLRLSCAASGSIFVGYAMGWYRQAPGKERELVAAITFRGGSTYYADSVKGRFTISRDNAKNTVYLQMNSLKPEDTAVYYCNRVVRLRRPAQYNYWGQGTQVTVSS,high polyreactivity

row,Sequence,polyreactivity (PSR sort gate)
1,QVQLQESGGGLVQAGGSLRLSCAASGSISHYIFMCWYRQSPGKEREFVAGIGYGGTTNYADSVKGRFTISRDNAKNTVYLQMISLTPEDTAMYYCAAREATEFYLYYWGQGTQVTVSS,low polyreactivity
2,QDQLVESGGGLVHAGGSLRLSCAASGSTFSIYAMGWYRQAPGKERELVAAIPYSGGSTYYADSVKGRFTISRDNAKNTVYLQMHSLKPEDTAVNYCAAEVYDSRWWYSGATDDYWGQGTQVSVSS,high polyreactivity
3,QVQLVESGGGLVQAGGSLRVSCAASGRIFPFYAMGWYRQAAGKERELVAAISWNGGSTFYADSVKGRFTSSRDNANNTVYLQMHRLKPEDNAVYYCNADFRPAYTYDYWGQGTQVTVSS,low polyreactivity
4,QVQLVESGGGLVQAGGSLRLSCAASGGTLDYNAMGWYRQAPGKERELVAGITSGGGTYYADSVKGRFTISRDNAKNTVYLQMNSVKPEDTAVYYCAARPWRSRYYGGLGRRFDYWGQGTQVTVSS,high polyreactivity
5,QVQHVESGGGLVQAGGSLRLSCAASGRTSKKYVMGWYRQAPGKERELVATLNWSGGSTYYADSVKGRFTISRDNAKNTVYLQMNSLKPEDTAVYYCAARSEFYWGWEYITYDYWGQGTQVTVSS,low polyreactivity
6,QVQLVESGGGLVQARGSLRLSCAASGSIFYGNTMGWYRQAPGKESEFVAAISYGGGGTYYADSVKGRFTISRDNAKNTVYLQMNILKPEDTAVYYCATDDPLYQINEQGMDYWGLGTQVTVSS,low polyreactivity
7,QVQLVESGGGLVQAGGSLRLSCAASGFTFRAYAMGWYRQAPGKERELVAGISGSGGRTYYADSVKGRFTISRDNAKNTVYLQMNSLKPEDTAVYYCAAEYRLYGYQYDYWGQGTQVTVSS,high polyreactivity
8,QVQLVESGGGLVQAGGSLRLSCAASGSTFEANAMGWYRQAPGKERELVAVITWTGGSTYYADSVKGRFTISRDNAKNTVYLQMNSLKPEDTAVYYCAADGVVPCRFFWPAHEYDYWGQGTQVTVSS,low polyreactivity
9,QVQLVESGGGLVQAGGSLRLSCAASGFTFRFNAMGWYRQAPGKERELVAAIRQSGGSTYYADSVKGRFTISRDTAKNTVSLQMNSLKPEDTAVYYCATGRSRIRNFGYWGQGTQVTVSS,high polyreactivity
10,QVQLVESGGGLVQAGGSLRISCAASGNICSWYAMGWSRQAPGKERELVAAIRWSSGSTYYADSVKWRFTISRDNAKNTVYLQMNSMKPEDTAVYYCAAVIKGWGQGTQVTVSS,high polyreactivity
11,QVQLVESGGGLVQAGGSLRLSCPASGRTFILNDMGRYRQAPGKEREFVATIDWSGGSSYYADSVKGRFTISRDNAKNTVFLQMNSLKPEDTAVYYCNRAFVPVYDLDYYWGQGTQVTVSS,low polyreactivity
12,QVQLVDSGGGLVQAGGSLRLSCAASGSIVYYNDMGWYRQAPGKEREVVATITSGGTTYYADSVKGRFTISRDNAKNSVYVQMNSLKGEDTAVYYCAATSYPGFDDWGQGSQVTVSS,low polyreactivity
13,QVQLVESGGGLVQAGGSLRLTCAASGIIFKLYAMGWYRQAPGKEREFVATITKTGGRTYYADSVKGRFTISRDNAKNTVYLQMNSLKPEDTAVDYCAARRVNGKMYYWGQGTQVTVSS,high polyreactivity
14,QVQLEESGGGLVQAGGSLRLSCAASGFTFALYAMGWYRPAPRNEMEFVAAISRRGGSTYYADSVKGRFTISRDNAKNTVYLQMNSLKPEDTAVYYCAANYPFGVYHGAPYGYWGQGTQVTVSS,high polyreactivity
15,LVQLVESGGGLVQAGGSLRLSCAASGITLARNAMGWYRQAPGKEWELVAAITWSGGTTYYADSVKGRFTISRDNAKNTVYLQMNSLKPEDTAVYYCAASAKLHYYRTYRYNYWGQGTQVTVSS,high polyreactivity
16,QVQLVESGGGLVQAGGSLRLSCAASGRTFFEYAMGWYRQAPGKERELVAIITNGATTNYADSVKGRFTISRDNAKNTVYLQMNSLKPEDTAVYYCAVAKWQPRRRKYYYWGQGTQVTVSS,high polyreactivity
17,QVQLVESGGGLVQAGGSLRLSCAASGRTFIQYAMGWYRQAPGKERELVAAISLSGGSTYYADSVKGRFTISRDNAKNTVYLQMNSLKPEDTAVYYCNAGYYWGQGTQVTVSS,high polyreactivity
18,QVQLVESGGGLDQAGGSLRLSWAASGSIFTIYAMGWYRQAPGKERELVAAISRRGGSTYYADSVKGRFTISRDNSKNTVYLQMNSLKPEDTAVYYCNADVAPGIFYGYDCWGQGTQVTVSS,low polyreactivity
19,QVQLVESGGGLVQAGGSLRLSCAASGSIFVVYGMGWYRQAPGKERELVAAISGGITNYADSVKGRFTISRDNAKNTVYLQMNSLKPEDTAVYYCATVDGAYQYTYDYWGQGTQVTVSS,low polyreactivity
20,QVQLVESGGGLVQAGGSLRLSCAATGLIFGWYAMGWYRQAPGKERELVAAISYSGGRTYYADSVKGRFTISRDNAKNTVYLQMNSLKPEDSAVYYCAAIVLQLRGRGYEYWGQGTQVTVSS,high polyreactivity
21,QVQLVESGGGLVQAGGSLRLSCAASGSIFSYYAMGWYRQAPAKERELVAAISQNACSTYYADSVKGRFTISRDNAKNTVYLQMNSLKPEDTAVYYCNAYSVYVRGEYWGQGTQVNVSS,high polyreactivity
